Results on two molecules are retold here after PMC8602850, “SARS-CoV-2 Exacerbates COVID-19 Pathology Through Activation of the Complement and Kinin Systems” (Frontiers in Immunology, 2021).

To fix the notation:
B1: gC1qR, wild type, mature recombinant (receptor for the globular heads of C1q) (receptor, UniProt Q07021 74-282, looked up)
chain: LHTDGDKAFVDFLSDEIKEERKIQKHKTLPKMSGGWELELNGTEAKLVRKVAGEKITVTFNINNSIPPTFDGEEEPSQGQKVEEQEPELTSTPNFVVEVIKNDDGKKALVLDCHYPEDEVGQEDEAESDIFSIREVSFQSTGESEWKDTNYTLNTDSLDWALYDHLMDFLADRGVDNTFADELVELSTALEHQEYITFLEDLKSFVKSQ
modifications: biotin (biotinylated gC1qR in the ELISA; not said for the SPR surface)
notes: also called gC1qR-WT; biotinylated gC1qR

Assay [1] has as its target T1, SARS-CoV-2 nucleocapsid (N) protein, recombinant (SARS-CoV-2, UniProt P0DTC9 1-419).
T1 construct: also called Nucleocapsid protein
Description: SPR; gC1qR-WT or gC1qR-ΔΔ immobilised; two-fold dilution series of analyte injected; reference-corrected sensorgrams fit to kinetic models; apparent KD. The note with it: both partners purified.

The target of assay [2] is B1. The description is as above. Conditions: both partners purified.

For the molecule B1, the Kd in assay [1] is 6 µM.
HKHGHGHGKHKNKGKKNGKH [synthetic peptide corresponding to the gC1qR-binding region from HK]: the Kd in assay [2] is 2000 µM.
